The results in this text go back to the supplement of paper PMC7125110.

First the molecules themselves.
B1: glmS ribozyme (parent)
chain: AUAAAAGCGCCAGAACUACAGAAAUGUAGUUGACGAGGAGGAGGUUUAUCGAAUUUUCGGCGGAUGCCUCCAAA

± gives the standard error. For part of these data: This sample holds only a part of the variants without activity. Bounds are passed on as bounds.

What all share (details): with glucosamine-6-phosphate
The variants in data set [1] derive from B1. In words: kcat; higher = faster cleavage; RNA array. The method, boiled down: (§1)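 In situ transcription by E. coli RNA polymerase produced barcoded ribozyme variants on sequenced MiSeq chips, and a hybridised Cy3 probe tracked them at 37 °C. Glucosamine-6-phosphate was flowed in at 40 μM to 10 mM in HEPES/KCl/Mg(OAc)2 buffer. kcat and KM were taken from weighted Michaelis–Menten fits of kobs values from exponential decay fits.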

Data set [2] covers variants of B1. In words: self-cleavage kobs at 40 uM GlcN6P; higher = faster cleavage; RNA array. The method in brief: as §1
In data set [3] the parent is B1. Description: self-cleavage kobs at 640 uM GlcN6P; higher = faster cleavage; RNA array. The method, boiled down: as §1
The variants in data set [4] derive from B1. In words: self-cleavage kobs at 2500 uM GlcN6P; higher = faster cleavage; RNA array. The method in brief: as §1
In data set [5] the parent is B1. Description: self-cleavage kobs at 10000 uM GlcN6P; higher = faster cleavage; RNA array. The method in brief: as §1
Variants of B1 are the subject of data set [6]. Description: KM; higher = weaker cofactor use; RNA array. The method, boiled down:
as §1

Data set [7] covers variants of B1. In words: self-cleavage kobs at 160 uM GlcN6P; higher = faster cleavage; RNA array. The method in brief: as §1

Broadly, the kcat is the maximal rate divided by the concentration of active sites. Regarding G60C C71A, the kcat in data set [1] is under 1e-05 s⁻¹. In addition, the “self-cleavage kobs at 40 uM GlcN6P” value in data set [2] is under 1e-05 s⁻¹.
With U47A G59U, in data set [1], the kcat was found to be 5.89e-05 ± 1.5e-06 s⁻¹.
As for G13C C16G, the kcat in data set [1] amounted to 0.000162 ± 5.6e-05 s⁻¹. The “self-cleavage kobs at 640 uM GlcN6P” value in data set [3] was determined as 4.75e-05 ± 2.1e-05 s⁻¹. Further, the “self-cleavage kobs at 2500 uM GlcN6P” value in data set [4] was 4.43e-05 ± 1.5e-05 s⁻¹. In data set [5], the “self-cleavage kobs at 10000 uM GlcN6P” value was found to be 0.000108 ± 1.6e-05 s⁻¹.
A word on the KM: it is the concentration of substrate that gives half-maximal velocity. As for G32U A39U C67G, the kcat in data set [1] worked out at 0.000203 ± 2.3e-05 s⁻¹. The Michaelis-Menten constant (KM) in data set [6] is 4340 ± 1100 µM. In data set [2], the “self-cleavage kobs at 40 uM GlcN6P” value is under 1e-05 s⁻¹. Moreover, the “self-cleavage kobs at 2500 uM GlcN6P” value in data set [4] was 7.96e-05 ± 1.7e-05 s⁻¹. Moreover, the “self-cleavage kobs at 10000 uM GlcN6P” value in data set [5] worked out at 0.00014 ± 2e-05 s⁻¹.
A14C A53C: the catalytic constant (kcat) in data set [1] is 0.00124 ± 0.00016 s⁻¹. Besides, in data set [6], the KM turned out to be 2550 ± 490 µM. Moreover, the “self-cleavage kobs at 40 uM GlcN6P” value in data set [2] was 2.58e-05 ± 1.2e-05 s⁻¹. Also, the “self-cleavage kobs at 160 uM GlcN6P” value in data set [7] was determined as 6.39e-05 ± 1e-05 s⁻¹. Besides, the “self-cleavage kobs at 640 uM GlcN6P” value in data set [3] came to 0.000267 ± 3.4e-05 s⁻¹. Moreover, in data set [4], the “self-cleavage kobs at 2500 uM GlcN6P” value turned out to be 0.000659 ± 7.9e-05 s⁻¹. In addition, the “self-cleavage kobs at 10000 uM GlcN6P” value in data set [5] amounted to 0.000924 ± 0.00013 s⁻¹.
Consider A64G U69G, for which the kcat in data set [1] came out at 4.12e-05 ± 5.6e-06 s⁻¹. Moreover, the “self-cleavage kobs at 640 uM GlcN6P” value in data set [3] turned out to be 4.4e-05 ± 1.2e-05 s⁻¹. Besides, the “self-cleavage kobs at 2500 uM GlcN6P” value in data set [4] worked out at 4.93e-05 ± 1.2e-05 s⁻¹. The “self-cleavage kobs at 10000 uM GlcN6P” value in data set [5] was determined as 3.35e-05 ± 8.6e-06 s⁻¹.
For G38U G63A, the turnover number (kcat) in data set [1] was under 1e-05 s⁻¹. The “self-cleavage kobs at 40 uM GlcN6P” value in data set [2] is under 1e-05 s⁻¹. Besides, the “self-cleavage kobs at 160 uM GlcN6P” value in data set [7] is under 1e-05 s⁻¹.
As to U57A C67A, the catalytic constant (kcat) in data set [1] was 0.000119 ± 3.3e-05 s⁻¹. The “self-cleavage kobs at 640 uM GlcN6P” value in data set [3] amounted to 4.64e-05 ± 1.4e-05 s⁻¹. In addition, in data set [4], the “self-cleavage kobs at 2500 uM GlcN6P” value was determined as 4.66e-05 ± 7.6e-06 s⁻¹. Also, the “self-cleavage kobs at 10000 uM GlcN6P” value in data set [5] was 9.37e-05 ± 1.1e-05 s⁻¹.
As for U69C C70A, the kcat in data set [1] amounted to 5.97e-05 ± 1.3e-05 s⁻¹. The “self-cleavage kobs at 640 uM GlcN6P” value in data set [3] amounted to 7.51e-05 ± 2e-05 s⁻¹. Also, the “self-cleavage kobs at 2500 uM GlcN6P” value in data set [4] is 4.46e-05 ± 2.2e-05 s⁻¹. In addition, the “self-cleavage kobs at 10000 uM GlcN6P” value in data set [5] worked out at 5.64e-05 ± 1.2e-05 s⁻¹.
Regarding G43A A53C, in data set [1], the catalytic constant (kcat) amounted to 6.63e-05 ± 3.6e-06 s⁻¹. The “self-cleavage kobs at 160 uM GlcN6P” value in data set [7] was under 1e-05 s⁻¹. Further, the “self-cleavage kobs at 640 uM GlcN6P” value in data set [3] was under 1e-05 s⁻¹.
Take A42U U45C: in data set [1], the turnover number (kcat) was found to be 0.000116 ± 1e-05 s⁻¹. In data set [6], the KM was 2890 ± 650 µM. Besides, in data set [3], the “self-cleavage kobs at 640 uM GlcN6P” value was 2.56e-05 ± 1.1e-05 s⁻¹. Further, the “self-cleavage kobs at 2500 uM GlcN6P” value in data set [4] was 5.1e-05 ± 1e-05 s⁻¹. In data set [5], the “self-cleavage kobs at 10000 uM GlcN6P” value worked out at 9.13e-05 ± 1.2e-05 s⁻¹.
As to U54A C68A, the kcat in data set [1] was 5.71e-05 ± 2e-05 s⁻¹. Also, the “self-cleavage kobs at 160 uM GlcN6P” value in data set [7] was 4.94e-05 ± 1.5e-05 s⁻¹. Moreover, in data set [3], the “self-cleavage kobs at 640 uM GlcN6P” value was found to be 7.98e-05 ± 1.5e-05 s⁻¹. Besides, in data set [4], the “self-cleavage kobs at 2500 uM GlcN6P” value was found to be 7.88e-05 ± 1.1e-05 s⁻¹.
Regarding G32U G66C, the kcat in data set [1] turned out to be 5.37e-05 ± 2.7e-06 s⁻¹. Further, in data set [6], the KM turned out to be 7240 ± 850 µM. Besides, the “self-cleavage kobs at 40 uM GlcN6P” value in data set [2] was under 1e-05 s⁻¹. Besides, the “self-cleavage kobs at 10000 uM GlcN6P” value in data set [5] is 3.11e-05 ± 1.2e-05 s⁻¹.
With G32U G66U, the turnover number (kcat) in data set [1] amounted to 9.79e-05 ± 9.9e-06 s⁻¹. Besides, in data set [6], the Michaelis-Menten constant (KM) turned out to be 7290 ± 1700 µM. Besides, the “self-cleavage kobs at 10000 uM GlcN6P” value in data set [5] turned out to be 5.66e-05 ± 1.4e-05 s⁻¹.
Take A52U G66A: the kcat in data set [1] was 0.000745 ± 0.00034 s⁻¹. For the same variant, the “self-cleavage kobs at 2500 uM GlcN6P” value in data set [4] is 5.37e-05 ± 1.4e-05 s⁻¹. Also, in data set [5], the “self-cleavage kobs at 10000 uM GlcN6P” value was 0.000185 ± 2.9e-05 s⁻¹.
For the variant A12U U46G, the turnover number (kcat) in data set [1] is 0.023 ± 0.007 s⁻¹. In data set [6], the Michaelis constant (KM) was 2700 ± 1100 µM. Also, the “self-cleavage kobs at 40 uM GlcN6P” value in data set [2] is 0.000297 ± 7.2e-05 s⁻¹. Besides, in data set [3], the “self-cleavage kobs at 640 uM GlcN6P” value amounted to 0.00656 ± 0.0018 s⁻¹. Besides, the “self-cleavage kobs at 2500 uM GlcN6P” value in data set [4] amounted to 0.0119 ± 0.0035 s⁻¹. In addition, in data set [5], the “self-cleavage kobs at 10000 uM GlcN6P” value is 0.0167 ± 0.0047 s⁻¹.
For the variant A39G C67U, in data set [1], the turnover number (kcat) was 0.00597 ± 0.0013 s⁻¹. Moreover, the Michaelis constant (KM) in data set [6] came to 979 ± 370 µM. In data set [2], the “self-cleavage kobs at 40 uM GlcN6P” value amounted to 0.00033 ± 5.8e-05 s⁻¹. Further, the “self-cleavage kobs at 160 uM GlcN6P” value in data set [7] came out at 0.000762 ± 0.00016 s⁻¹. The “self-cleavage kobs at 640 uM GlcN6P” value in data set [3] stood at 0.00216 ± 0.00033 s⁻¹. Moreover, the “self-cleavage kobs at 2500 uM GlcN6P” value in data set [4] was found to be 0.00338 ± 0.0007 s⁻¹. Besides, in data set [5], the “self-cleavage kobs at 10000 uM GlcN6P” value amounted to 0.00666 ± 0.00089 s⁻¹.
